Data taken from paper PMC3527528.

Molecular target: Ssl1 (S. sviceus laccase 1), small two-domain laccase from Streptomyces sviceus, without the twin-arginine signal peptide (Streptomyces sviceus)
Assay: SEC-MALS; Superdex 200 10/300 GL, 0.5 mL/min, 50 mM potassium phosphate pH 7.5; 100 µL of Ssl1 at 7.5 mg/mL injected; multi-angle static light scattering with refractometer

Ssl1 (S. sviceus laccase 1), small two-domain laccase from Streptomyces sviceus, without the twin-arginine signal peptide (enzyme)
stoichiometry N: 3
